Data reported in patent US12630620 (dated 2026).
Read-outs that look alike come from different tables or passages of the source.

T1: commercial GDF15 recombinant protein (R&D, 9279-GD) (UniProt Q99988 197-308)
T1 chain: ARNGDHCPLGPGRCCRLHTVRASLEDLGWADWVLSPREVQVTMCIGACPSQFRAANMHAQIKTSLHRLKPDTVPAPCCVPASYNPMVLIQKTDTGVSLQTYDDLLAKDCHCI


How the values were obtained:
[1] = target: T1, commercial GDF15 recombinant protein …; test: SPR
[2] = target: T1, commercial GDF15 recombinant protein …; test: SPR

| Binder | Kd [1] | Kd [2] |
| --- | --- | --- |
| anti-GDF15 neutralizing monoclonal antibody G2 (antibody, V domains shown) VH: QVQLQQSGAELARPGASVKLSCKASGYTFTDYYINWVKQRTGQGLEWIGEIYPGSGNTYYNEKFKGKATLTADKSSSTAYMQLSSLTSEDSAVYFCARVRALLRPLAMDYWGQGTSVTVSS VL: QIVLSQSPAILSASPGEKVTMTCRASSSVSYMHWYQQKPGSSPKPWIYATSNLASGVPARFSGSGSGTSYSLTISRVEAEDAATYYCQQWSSNPPFTFGSGTKLEIK | 572 nM |  |
| anti-GDF15 neutralizing monoclonal antibody G1 (antibody, V domains shown) VH: DVQLQESGPGLVKPSQSLSLTCTVTGYSITSAYAWNWIRQFPGNKLEWMGYISYSGSTSYNPSLKSRISITRDTSKNQFFLQFNSVTTEDTATYYCARGGDAEDYWGQGTTLTVSS VL: DIQMTQSPASLSVSVGETVTITCRASENIYSNLAWFQQKQGKSPQLLVYVATNLVDGVPSRFSGSGSGTQYSLKINSLQSEDFGTYYCQHFWGTPWTFGGGTKLEIK |  | 71.4 nM |
